From patent US20120178668A1

Tests used:
Assay in all cases: cell-based or functional assay
[1] = molecular target: Natriuretic Peptide Receptor-A (NPR-A) of MDCK cells (canine (endogenous in MDCK cells))
rat GC-A (rat) = rat GC-A (rat) (UniProt P18910)
NPR-A of HeLa cells = NPR-A of HeLa cells (UniProt P16066)
NPR-C (rat) = molecular target: T1, NPR-C (rat) (UniProt P41740)
T1 sequence: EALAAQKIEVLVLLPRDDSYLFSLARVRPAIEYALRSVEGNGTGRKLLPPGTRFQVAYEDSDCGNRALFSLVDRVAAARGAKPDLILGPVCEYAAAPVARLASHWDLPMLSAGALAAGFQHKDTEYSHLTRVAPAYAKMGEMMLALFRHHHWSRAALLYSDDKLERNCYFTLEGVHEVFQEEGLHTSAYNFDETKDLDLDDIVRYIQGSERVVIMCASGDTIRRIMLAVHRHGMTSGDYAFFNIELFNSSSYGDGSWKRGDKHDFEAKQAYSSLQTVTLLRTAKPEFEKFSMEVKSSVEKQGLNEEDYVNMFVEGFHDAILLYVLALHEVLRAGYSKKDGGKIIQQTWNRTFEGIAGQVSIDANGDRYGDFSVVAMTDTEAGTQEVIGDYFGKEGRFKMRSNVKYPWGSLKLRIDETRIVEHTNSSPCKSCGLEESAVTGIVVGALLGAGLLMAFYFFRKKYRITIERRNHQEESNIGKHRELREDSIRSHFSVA

[2] = molecular target: T2, NPR-A of HeLa cells, P16066
T2 chain: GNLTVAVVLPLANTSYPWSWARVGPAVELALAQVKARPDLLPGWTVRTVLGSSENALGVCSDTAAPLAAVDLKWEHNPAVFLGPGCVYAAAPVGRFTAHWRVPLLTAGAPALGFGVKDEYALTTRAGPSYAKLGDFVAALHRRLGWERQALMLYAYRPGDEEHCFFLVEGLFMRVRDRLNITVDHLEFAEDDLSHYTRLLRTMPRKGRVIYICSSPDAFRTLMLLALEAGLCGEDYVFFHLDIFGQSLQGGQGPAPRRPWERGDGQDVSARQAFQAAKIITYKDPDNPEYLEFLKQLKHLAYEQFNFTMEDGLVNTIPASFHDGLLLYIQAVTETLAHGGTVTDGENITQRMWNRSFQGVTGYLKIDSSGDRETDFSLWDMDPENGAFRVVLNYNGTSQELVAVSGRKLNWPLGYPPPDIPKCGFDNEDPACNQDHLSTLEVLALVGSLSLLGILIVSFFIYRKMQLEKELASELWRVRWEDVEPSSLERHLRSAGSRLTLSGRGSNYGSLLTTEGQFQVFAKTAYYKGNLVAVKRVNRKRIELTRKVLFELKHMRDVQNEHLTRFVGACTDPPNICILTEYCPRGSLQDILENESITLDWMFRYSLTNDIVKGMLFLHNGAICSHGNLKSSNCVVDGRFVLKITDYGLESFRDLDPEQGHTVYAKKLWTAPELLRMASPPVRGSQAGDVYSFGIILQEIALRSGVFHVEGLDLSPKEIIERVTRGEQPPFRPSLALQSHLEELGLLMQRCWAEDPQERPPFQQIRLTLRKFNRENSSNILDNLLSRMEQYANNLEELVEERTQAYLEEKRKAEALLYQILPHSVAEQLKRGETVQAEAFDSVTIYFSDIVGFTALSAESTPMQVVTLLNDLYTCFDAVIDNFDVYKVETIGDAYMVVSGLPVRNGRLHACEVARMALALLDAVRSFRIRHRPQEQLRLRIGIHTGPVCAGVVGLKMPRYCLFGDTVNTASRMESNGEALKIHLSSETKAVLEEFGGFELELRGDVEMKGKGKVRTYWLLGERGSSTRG

NPR-C (rat), P41740 = molecular target: T3, NPR-C (rat), P41740
T3 chain: T1 sequence

[3] = molecular target: T4, Natriuretic Peptide Receptor-A (NPR-A) of MDCK cells (canine (endogenous in MDCK cells)), A0A8I3
T4 chain: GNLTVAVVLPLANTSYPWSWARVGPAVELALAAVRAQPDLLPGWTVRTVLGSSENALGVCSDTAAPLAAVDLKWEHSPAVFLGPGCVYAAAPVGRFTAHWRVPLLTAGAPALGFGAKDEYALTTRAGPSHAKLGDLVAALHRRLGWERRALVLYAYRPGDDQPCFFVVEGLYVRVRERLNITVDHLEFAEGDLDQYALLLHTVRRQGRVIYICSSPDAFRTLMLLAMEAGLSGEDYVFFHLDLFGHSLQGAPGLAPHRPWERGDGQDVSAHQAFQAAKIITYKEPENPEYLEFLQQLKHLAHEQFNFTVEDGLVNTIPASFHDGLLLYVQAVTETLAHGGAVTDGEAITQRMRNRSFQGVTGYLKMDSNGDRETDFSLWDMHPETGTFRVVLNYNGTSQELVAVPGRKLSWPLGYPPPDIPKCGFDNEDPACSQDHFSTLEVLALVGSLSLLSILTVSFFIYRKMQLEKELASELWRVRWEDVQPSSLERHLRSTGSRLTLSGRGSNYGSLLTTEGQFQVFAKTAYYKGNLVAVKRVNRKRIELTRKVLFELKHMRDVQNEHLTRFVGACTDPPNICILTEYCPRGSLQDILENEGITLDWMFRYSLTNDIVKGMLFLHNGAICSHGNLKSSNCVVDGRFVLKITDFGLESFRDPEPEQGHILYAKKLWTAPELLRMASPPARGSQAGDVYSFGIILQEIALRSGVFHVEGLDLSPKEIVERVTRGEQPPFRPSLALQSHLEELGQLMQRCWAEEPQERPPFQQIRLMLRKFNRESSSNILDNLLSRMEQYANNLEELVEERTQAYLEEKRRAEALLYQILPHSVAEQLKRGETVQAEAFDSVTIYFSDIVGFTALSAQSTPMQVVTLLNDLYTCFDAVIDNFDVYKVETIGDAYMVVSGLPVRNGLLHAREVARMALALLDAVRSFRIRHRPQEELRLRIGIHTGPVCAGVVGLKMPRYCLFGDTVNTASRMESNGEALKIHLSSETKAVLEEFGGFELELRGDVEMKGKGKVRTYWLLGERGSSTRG

rat GC-A (rat), P18910 = molecular target: T5, rat GC-A (rat), P18910
T5 chain: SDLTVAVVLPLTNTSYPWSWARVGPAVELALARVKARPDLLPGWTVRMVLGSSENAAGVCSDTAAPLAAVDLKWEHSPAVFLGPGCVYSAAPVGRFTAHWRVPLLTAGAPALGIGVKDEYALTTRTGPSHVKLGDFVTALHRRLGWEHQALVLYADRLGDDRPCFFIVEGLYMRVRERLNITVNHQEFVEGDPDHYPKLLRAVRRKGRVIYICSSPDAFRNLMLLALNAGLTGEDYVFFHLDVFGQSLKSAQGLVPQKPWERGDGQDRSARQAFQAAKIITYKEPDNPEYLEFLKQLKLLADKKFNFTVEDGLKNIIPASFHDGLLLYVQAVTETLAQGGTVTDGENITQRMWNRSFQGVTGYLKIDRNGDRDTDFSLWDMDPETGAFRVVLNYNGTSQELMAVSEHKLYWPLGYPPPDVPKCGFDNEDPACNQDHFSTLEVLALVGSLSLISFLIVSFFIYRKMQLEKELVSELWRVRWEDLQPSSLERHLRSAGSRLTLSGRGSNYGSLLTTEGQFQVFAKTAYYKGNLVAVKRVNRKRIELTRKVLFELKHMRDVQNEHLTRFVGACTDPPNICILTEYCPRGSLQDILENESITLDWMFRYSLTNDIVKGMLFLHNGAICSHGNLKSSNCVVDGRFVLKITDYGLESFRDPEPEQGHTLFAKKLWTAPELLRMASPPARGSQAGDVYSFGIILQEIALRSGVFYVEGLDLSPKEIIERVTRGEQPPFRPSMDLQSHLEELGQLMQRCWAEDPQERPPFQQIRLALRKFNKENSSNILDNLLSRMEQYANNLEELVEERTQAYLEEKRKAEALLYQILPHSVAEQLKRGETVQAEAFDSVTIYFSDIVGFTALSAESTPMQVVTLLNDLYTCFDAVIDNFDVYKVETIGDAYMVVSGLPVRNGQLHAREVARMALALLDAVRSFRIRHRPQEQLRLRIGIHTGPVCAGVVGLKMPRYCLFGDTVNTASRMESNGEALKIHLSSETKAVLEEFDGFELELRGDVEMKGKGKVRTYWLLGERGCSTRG

## A7-TNPc (peptide)
[1]
  -Log10 EC50 (pEC50) of cGMP accumulation in MDCK cells: 6.87
  EC50 of cGMP accumulation in MDCK cells: 0.161 µM
Rat GC-A (rat)
  mean relaxation of denuded aortic rings, % of KCl response (% of KCl response): 32.9

## CHA10-TNPc (peptide)
[1]
  -Log10 EC50 (pEC50) of cGMP accumulation in MDCK cells: 7.84
  EC50 of cGMP accumulation in MDCK cells: 0.0144 µM
Rat GC-A (rat)
  mean relaxation of denuded aortic rings, % of KCl response (% of KCl response): 64.2

## DNP (peptide)
NPR-A of HeLa cells
  -Log10EC50 (pEC50) of cGMP accumulation in HeLa cells: 9.42
  EC50 of cGMP accumulation in HeLa cells: 0.000392 µM
NPR-C (rat)
  relaxation of KCl pre-contracted endothelium-intact rat aortic rings: 100%
[1]
  -Log10 EC50 (pEC50) of cGMP accumulation in MDCK cells: 8.08
  EC50 of cGMP accumulation in MDCK cells: 1.85 µM
Rat GC-A (rat)
  relaxation of KCl pre-contracted endothelium-denuded rat aortic rings: 100%

## K7-TNPc (peptide)
[1]
  -Log10 EC50 (pEC50) of cGMP accumulation in MDCK cells: 7.44
  EC50 of cGMP accumulation in MDCK cells: 0.0527 µM
Rat GC-A (rat)
  mean relaxation of denuded aortic rings, % of KCl response (% of KCl response): 46.1
  relaxation of denuded aortic rings: 50%

## Lebetin 2 isoform α (peptide)
[1]
  -Log10 EC50 (pEC50) of cGMP accumulation in MDCK cells: 7.64
  EC50 of cGMP accumulation in MDCK cells: 0.0268 µM

## N7D-TNPc (peptide)
[1]
  -Log10 EC50 (pEC50) of cGMP accumulation in MDCK cells: 7.58
  EC50 of cGMP accumulation in MDCK cells: 0.0262 µM

## Nle29-TNPc (peptide)
[1]
  -Log10 EC50 (pEC50) of cGMP accumulation in MDCK cells: 6.5
  EC50 of cGMP accumulation in MDCK cells: 0.399 µM
Rat GC-A (rat)
  mean relaxation of denuded aortic rings, % of KCl response (% of KCl response): 61

## P28-TNPc (peptide)
[1]
  -Log10 EC50 (pEC50) of cGMP accumulation in MDCK cells: 6
  EC50 of cGMP accumulation in MDCK cells: 1.19 µM
Rat GC-A (rat)
  mean relaxation of denuded aortic rings, % of KCl response (% of KCl response): 52.6

## PNP (peptide)
[1]
  -Log10 EC50 (pEC50) of cGMP accumulation in MDCK cells: 6.66
  EC50 of cGMP accumulation in MDCK cells: 0.347 µM

## R18-TNPc (peptide)
[1]
  -Log10 EC50 (pEC50) of cGMP accumulation in MDCK cells: 6.78
  EC50 of cGMP accumulation in MDCK cells: 0.7 µM
Rat GC-A (rat)
  mean relaxation of denuded aortic rings, % of KCl response (% of KCl response): 0.5

## R32-TNPc (peptide)
[1]
  -Log10 EC50 (pEC50) of cGMP accumulation in MDCK cells: 7.68
  EC50 of cGMP accumulation in MDCK cells: 0.0991 µM
Rat GC-A (rat)
  mean relaxation of denuded aortic rings, % of KCl response (% of KCl response): 66.4

## S6, A7-TNPc (peptide)
[1]
  -Log10 EC50 (pEC50) of cGMP accumulation in MDCK cells: 6.9
  EC50 of cGMP accumulation in MDCK cells: 0.169 µM
Rat GC-A (rat)
  mean relaxation of denuded aortic rings, % of KCl response (% of KCl response): 43.1

## S6, K7-TNPc (peptide)
[1]
  -Log10 EC50 (pEC50) of cGMP accumulation in MDCK cells: 7.57
  EC50 of cGMP accumulation in MDCK cells: 0.0524 µM
Rat GC-A (rat)
  mean relaxation of denuded aortic rings, % of KCl response (% of KCl response): 43.8

## hANP (peptide)
NPR-C (rat)
  relaxation of KCl pre-contracted endothelium-intact rat aortic rings: 100%
[1]
  -Log10 EC50 (pEC50) of cGMP accumulation in MDCK cells: 8.79
  EC50 of cGMP accumulation in MDCK cells: 0.0164 µM
Rat GC-A (rat)
  mean relaxation of denuded aortic rings, % of KCl response (% of KCl response): 66.5
  relaxation of KCl pre-contracted endothelium-denuded rat aortic rings: 100%

## hBNP (peptide)
NPR-A of HeLa cells
  -Log10EC50 (pEC50) of cGMP accumulation in HeLa cells: 6.92
  EC50 of cGMP accumulation in HeLa cells: 0.147 µM
[1]
  -Log10 EC50 (pEC50) of cGMP accumulation in MDCK cells: 9.16
  EC50 of cGMP accumulation in MDCK cells: 0.000906 µM

## rANP (from UniProt P01161 123-150) (peptide)
[1]
  -Log10 EC50 (pEC50) of cGMP accumulation in MDCK cells: 8.76
  EC50 of cGMP accumulation in MDCK cells: 0.00847 µM

## SDSKIGNGCFGFPLDRIGSVSGLGCNRIMQNPPKKFSGE (modifications not checked) [TNPc]
[2]
  EC50 of cGMP accumulation in HeLa cells: 124000 µM
NPR-C (rat), P41740
  relaxation of KCl pre-contracted endothelium-intact rat aortic rings: 100%
[3]
  -Log10 EC50 (pEC50) of cGMP accumulation in MDCK cells: 6.93
  EC50 of cGMP accumulation in MDCK cells: 0.184 µM
Rat GC-A (rat), P18910
  mean relaxation of denuded aortic rings, % of KCl response (% of KCl response): 55
  relaxation of KCl pre-contracted endothelium-denuded rat aortic rings: 100%

## SDSKIGDGCFGLPLDHIGSVSGLGCNRPVQNRPKK (modifications not checked) [TNPa]
NPR-C (rat), P41740
  relaxation of KCl pre-contracted endothelium-intact rat aortic rings: 20%

## SDPKIGDGCFGLPLDHIGSVSGLGCNRPVQNRPKK (modifications not checked) [TNPb]
NPR-C (rat), P41740
  relaxation of KCl pre-contracted endothelium-intact rat aortic rings: 20%
